Assay results from US20100329980A1 (GENE TECHNO SCIENCE, published 2010).
Ends that are not written are not given here.

What was measured:
human α4 integrin [1] = target: T1, human α4 integrin (human, UniProt P13612 34-1032); test: hybridoma screening on transfected CHO-K1 cells
T1 construct: whole, on cells; also called Human α4/CHO-K1 cells; CHO K1 cells expressing human α4 integrin
T1 sequence (looked up): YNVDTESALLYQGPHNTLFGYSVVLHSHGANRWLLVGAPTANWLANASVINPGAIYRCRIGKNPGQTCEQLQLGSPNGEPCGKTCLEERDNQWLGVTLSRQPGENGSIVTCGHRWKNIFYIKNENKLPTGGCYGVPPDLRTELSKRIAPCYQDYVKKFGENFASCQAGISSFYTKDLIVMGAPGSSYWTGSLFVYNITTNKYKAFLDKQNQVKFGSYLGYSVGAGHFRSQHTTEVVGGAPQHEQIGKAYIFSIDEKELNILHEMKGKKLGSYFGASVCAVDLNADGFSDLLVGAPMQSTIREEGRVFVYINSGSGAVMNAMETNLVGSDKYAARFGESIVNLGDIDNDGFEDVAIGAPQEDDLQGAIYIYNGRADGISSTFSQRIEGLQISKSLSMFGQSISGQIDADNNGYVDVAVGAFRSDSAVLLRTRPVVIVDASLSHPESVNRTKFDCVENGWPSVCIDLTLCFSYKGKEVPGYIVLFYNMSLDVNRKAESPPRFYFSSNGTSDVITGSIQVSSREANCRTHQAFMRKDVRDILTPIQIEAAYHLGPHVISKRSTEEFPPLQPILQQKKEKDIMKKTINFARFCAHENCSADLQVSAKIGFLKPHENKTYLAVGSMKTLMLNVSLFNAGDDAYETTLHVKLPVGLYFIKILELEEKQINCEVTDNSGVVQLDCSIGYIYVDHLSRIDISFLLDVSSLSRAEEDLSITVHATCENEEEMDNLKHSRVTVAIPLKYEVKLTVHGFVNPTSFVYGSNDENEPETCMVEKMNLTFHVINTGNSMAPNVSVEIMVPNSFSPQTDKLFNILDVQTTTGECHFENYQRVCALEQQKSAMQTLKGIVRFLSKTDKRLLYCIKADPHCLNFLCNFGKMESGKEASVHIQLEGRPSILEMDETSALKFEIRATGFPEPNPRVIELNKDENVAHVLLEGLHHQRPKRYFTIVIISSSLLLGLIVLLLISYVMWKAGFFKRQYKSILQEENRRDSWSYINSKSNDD

[2] = target: T2, Human α9 integrin sequence KSPGAVFKCRVHTNPDRR (SEQ ID NO: 78) (human, also: coupled to cellulose membrane via C6-spacer and 2 βAla, end not given here); test: peptide spot membrane, peroxidase-labelled antibody, ECL
T2 construct: Spots were twelve-residue peptides offset by three residues
T2 peptide: KSPGAVFKCRVHTNPDRR
Description: (§1) Twelve-residue polypeptides, starting from N-terminal of human α9 integrin and every three residues thereafter (i.e., amino acid residues 1-12, 4-15, 7-18, and so forth) were prepared and coupled to a cellulose membrane via C6-spacer and 2 βAla residues at 5 nmol/spot. The membrane was blocked with a blocking buffer (milk/0.05% Tween20 in PBS) and reacted with 10 ml of solution containing 1.0 μg/ml of each of the anti-human α9 integrin monoclonal antibodies (i.e., 1K11, 21C5, 24I11 and 25 B6, respectively) labeled with peroxidase for three hours at room temperature. After washing with T-TBS, the membrane was reacted with enhanced chemiluminescence (ECL) detecting reagent for 1 minute at room temperature. The luminescence emitted as a result of the enzymatic reaction is measured and epitopes of the antibodies were determined based on the luminescence intensities. As a control, Y9A2 (see Wang et al., 1996, Am J Respir Cell Mol Biol 15, 664-672), a commercially available monoclonal antibody against human α9 integrin, was used.

[3] = target: T3, Human α9 integrin sequence … (SEQ ID NO: 79) (human, coupled to a cellulose membrane via C6-spacer and 2 βAla residues); test: as above
T3 construct: Spots were twelve-residue peptides offset by three residues
Description: as §1

[4] = target: T4, Human α9 integrin sequence CAHRWKNIYYEADHI (SEQ ID NO: 80) (human, also: coupled to cellulose membrane via C6-spacer and 2 βAla, end not given here); test: as above
T4 construct: Spots were twelve-residue peptides offset by three residues
T4 peptide: CAHRWKNIYYEADHI
Description: as §1

[5] = target: T5, Human α9 integrin sequence GFCYIIPSNLQAKGRTLI (SEQ ID NO: 81) (human, also: coupled to cellulose membrane via C6-spacer and 2 βAla, end not given here); test: as above
T5 construct: Spots were twelve-residue peptides offset by three residues
T5 peptide: GFCYIIPSNLQAKGRTLI
Description: as §1

[6] = target: T6, Human α9 integrin sequence VMGAPGSFYWAGTIKVLN (SEQ ID NO: 82) (human, also: coupled to cellulose membrane via C6-spacer and 2 βAla, end not given here); test: as above
T6 construct: Spots were twelve-residue peptides offset by three residues
T6 peptide: VMGAPGSFYWAGTIKVLN
Description: as §1

[7] = target: T7, Human α9 integrin sequence VIMNRRYTYLGYAVT (SEQ ID NO: 83) (human, also: coupled to cellulose membrane via C6-spacer and 2 βAla, end not given here); test: as above
T7 construct: Spots were twelve-residue peptides offset by three residues
T7 peptide: VIMNRRYTYLGYAVT
Description: as §1

[8] = target: T8, Human α9 integrin sequence … (SEQ ID NO: 84) (human, coupled to a cellulose membrane via C6-spacer and 2 βAla residues); test: as above
T8 construct: Spots were twelve-residue peptides offset by three residues
Description: as §1

[9] = target: T9, Human α9 integrin sequence QYSMKLSGQKINPVLRMFGQSISG (SEQ ID NO: 85) (human, coupled to a cellulose membrane via C6-spacer and 2 βAla residues); test: as above
T9 construct: Spots were twelve-residue peptides offset by three residues
T9 peptide: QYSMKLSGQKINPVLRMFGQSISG
Description: as §1

[10] = target: T10, Human α9 integrin sequence … (SEQ ID NO: 86) (human, coupled to a cellulose membrane via C6-spacer and 2 βAla residues); test: as above
T10 construct: Spots were twelve-residue peptides offset by three residues
Description: as §1

[11] = target: T11, Human α9 integrin sequence RHYVAHVKRRVQDVISPI (SEQ ID NO: 87) (human, also: coupled to cellulose membrane via C6-spacer and 2 βAla, end not given here); test: as above
T11 construct: Spots were twelve-residue peptides offset by three residues
T11 peptide: RHYVAHVKRRVQDVISPI
Description: as §1

[12] = target: T12, Human α9 integrin sequence YLALGAVKNISL (SEQ ID NO: 89) (human, also: coupled to cellulose membrane via C6-spacer and 2 βAla (end not given here)); test: as above
T12 construct: Spots were twelve-residue peptides offset by three residues
T12 peptide: YLALGAVKNISL
Description: as §1

[13] = target: T13, Human α9 integrin sequence CSVGFPFMRSKSKYEFSV (SEQ ID NO: 90) (human, also: coupled to cellulose membrane via C6-spacer and 2 βAla, end not given here); test: as above
T13 construct: Spots were twelve-residue peptides offset by three residues
T13 peptide: CSVGFPFMRSKSKYEFSV
Description: as §1

[14] = target: T14, Human α9 integrin sequence SSSVIQFMSRAKVKVDPALRV (SEQ ID NO: 91) (human, coupled to a cellulose membrane via C6-spacer and 2 βAla residues); test: as above
T14 construct: Spots were twelve-residue peptides offset by three residues
T14 peptide: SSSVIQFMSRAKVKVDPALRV
Description: as §1

human α4 integrin [15] = target: T1, human α4 integrin; test: FACS, FITC-labeled anti-mouse IgG secondary
Description: Whether the anti-human α9 integrin antibodies were usable for FACS was examined using Human α9/CHO-K1 cells, CHO-K1 cells and human neutrophils endogenously expressing the α9 integrin. In human neutrophils, FACS analysis was conducted at the cell count of 1.0×10⁵ and antibodies were reacted on ice. Non-specific reaction with the Fc receptor was blocked with 50% goat serum. FITC-labeled anti-mouse IgG antibody was used as a secondary antibody. As a result (see FIGS. 20a, 20b and 20c), all of the anti-human α9 integrin antibodies could detect the α9 integrin on Human α9/CHO-K1 and human neutrophils. None of the antibodies reacted with Human α4/CHO-K1 cells (see FIGS. 20a, 20b and 20c).

B1: 1K11 mouse anti-human α9 integrin monoclonal antibody (FERM BP-10510) (antibody, mouse IgG1, V domains shown)
VH: VQLQESGPELVKPGASVKIPCKASGYTFTDYNMDWVKQSHGKSLEWIGDINPNNGGTIYNQKFQGKATLTVDKSSSTAYMELRSLTSEDTAVYYCARSGVISTDYWGQGTTVTVSS
VL: DIQMTQSPPSLSASLGERVSLTCRASQEISGYLIWLQQKPDGTIQRLIYAASTLDSGVPKRFSGSRSGSDYSLTISSLESEDFADYYCLQYANYPPTFGGGTKLEIKR
notes: Mouse IgG1 from hybridoma
Human α4 integrin [1]
  binding result: no binding
[2]
  binding result: binds
[3]
  binding result: binds
[4]
  binding result: binds
[5]
  binding result: binds
[6]
  binding result: binds
[7]
  binding result: binds
[8]
  binding result: binds
[9]
  binding result: binds
[10]
  binding result: binds
[11]
  binding result: binds
[12]
  binding result: binds
[13]
  binding result: binds
[14]
  binding result: binds

B2: 24I11 mouse anti-human α9 integrin monoclonal antibody (FERM BP-10512) (antibody, mouse IgG1, V domains shown)
VH: EVQLQQSGAELVKPGASVKLSCTASGFNIKDTYVHWVKQRPEQGLEWIGNIDPANGNTKYDPKFQGKATITADTSSNTAYLHLSSLTSEDTAVYYCARWLRHFYYAMDYWGQGTSVTVSS
VL: DIQMTQSPASLAASVGETVTITCRASENIYYSLAWYQQKQGKSPQLLIYNANSLEDGVPSRFSGSGSGTQYSMKINSMQPEDTATYFCKQAYDVPYTFGGGTKLEIK
notes: Mouse IgG1/kappa from hybridoma; also called mouse 24I11
Human α4 integrin [15]
  binding result: no binding
[2]
  binding result: binds
[3]
  binding result: binds
[4]
  binding result: binds
[5]
  binding result: binds
[6]
  binding result: binds
[7]
  binding result: binds
[8]
  binding result: binds
[11]
  binding result: binds
[13]
  binding result: binds
[14]
  binding result: binds

B3: 28S1 mouse anti-human α9 integrin monoclonal antibody (FERM BP-10832) (antibody, mouse IgG1, V domains shown)
VH: VKLQESGPGLVAPSQSLSITCTVSGFSLTGYGVNWVRQPPGKGLEWLGMIWGDGITEYNSALKSRLSISKDNSKSQVFLKMNSLQTDDTARYYCARDASSGYGFAYWGQGTTVTVSS
VL: YIVLTQSPAIMSASLGERVTMTCTASSSVSSSYLHWYQQKPGSSPKLWIYSTSNLASGVPARFSGSGSGTSYSLTISSMEAEDAATYYCHQYHRSPYTFGGGTKLEIKR
notes: Mouse IgG1 from hybridoma
Human α4 integrin [15]
  binding result: no binding

B4: 21C5 mouse anti-human α9 integrin monoclonal antibody (FERM BP-10511) (antibody, mouse IgG1, V domains shown)
VH: VQLQESGGGLVKPGGSLKLSCAASGFTFSDYYMYWVRQTPEKRLEWVATISDGGNYTYYPDSVKGRFTISRDNAKNNLYLQMSSLKSEDTAMYYCARDRDGSSLFAYWGQGTTVTVSS
VL: KFMSTSVGDRVSITCKASQDVNIAVAWYQQRPGQSPKLLIYWASTRHTGVPDRFTGSGSGTDYTLTISSVQAEDLALYYCQQHYNTPWTFGGGTKLEIKR
notes: Mouse IgG1 from hybridoma; cloned with degenerate primers
Human α4 integrin [1]
  binding result: no binding
